Experimental data reported in paper PMC10215317, “The Rhodanese PspE Converts Thiosulfate to Cellular Sulfane Sulfur in Escherichia coli” (Antioxidants, 2023).

Substrate: O=S(O)(O)=S
Assay: purified protein
Assay type: biochemical, Escherichia coli
Conditions: 100 mM GSH fixed, 0.4 mM lead acetate, 100 mM HEPES pH 7.4, 37 °C

B1: ΔNS-PspE (Escherichia coli K-12) (protein)
chain: AEHWIDVRVPEQYQQEHVQGAINIPLKEVKERIATAVPDKNDTVKVYCNAGRQSGQAKEILSEMGYTHVENAGGLKDIAMPKVKG
notes: Ni-NTA and Superdex 200
Km: 7.8 ± 1.6 mM
kcat: 0.04 s⁻¹
kcat/Km: 4.8 M⁻¹ s⁻¹

B2: GlpE (Escherichia coli K-12) (protein)
chain: MDQFECINVADAHQKLQEKEAVLVDIRDPQSFAMGHAVQAFHLTNDTLGAFMRDNDFDTPVMVMCYHGNSSKGAAQYLLQQGYDVVYSIDGGFEAWQRQFPAEVAYGA
notes: intact gene (324 bp), C-terminal His6 tag kept, pET30a, E. coli BL21(DE3); Ni-NTA and Superdex 200
Km: 33.6 ± 7.0 mM
kcat: 0.02 s⁻¹
kcat/Km: 0.7 M⁻¹ s⁻¹
